This is an account of results in patent US5973118.

Assay [1] has as its target recombinant plasminogen activator rPA (recombinant tPA derivative comprising the kringle 2 and protease domains) (Homo sapiens (Human)) (UniProt P00750). As to the kind of experiment: affinity column: inhibitor coupled to CNBr-Sepharose, loaded with 2 MU r-PA/ml gel, eluted rPA by S2288 amidolytic activity, run 3.
Assay [2] shares this target. As to the kind of experiment: affinity column: inhibitor coupled to CNBr-Sepharose, loaded with 2 MU r-PA/ml gel, eluted rPA by S2288 amidolytic activity, run 5.
Assay [3] has the same target. Put plainly: affinity column: inhibitor coupled to CNBr-Sepharose, loaded with 2 MU r-PA/ml gel, eluted rPA by S2288 amidolytic activity, run 4.
The target is the same in assay [4]. As to the kind of experiment: affinity column: inhibitor coupled to CNBr-Sepharose, loaded with 2 MU r-PA/ml gel, eluted rPA by S2288 amidolytic activity, run 1.
Assay [5] has the same target. As to the kind of experiment: affinity column: inhibitor coupled to CNBr-Sepharose, loaded with 2 MU r-PA/ml gel, eluted rPA by S2288 amidolytic activity, run 2.
Assay [6] has the same target. Put plainly: affinity column: inhibitor coupled to CNBr-Sepharose, eluted rPA; reference seed-ETI-Sepharose.

As to “ETI isolated from the seeds of Erythrina caffra [ETI (seeds)] (from UniProt P09943)”, the Binding capacity MU/ml in assay [1] was found to be 1.08 MU/ml; in assay [2], 0.98 MU/ml; in assay [3], 1.01 MU/ml; in assay [4], 1.04 MU/ml; in assay [5], 0.95 MU/ml. This substance also displayed a specific activity (U/mg), inhibition of trypsin with BAPA as substrate with trypsin of 0.88 U/mg.
With “SerETI (recombinant ETI polypeptide in which the N-terminal Val is replaced by Ser)”, the Binding capacity MU/ml in assay [1] is 1.53 MU/ml; in assay [2] it was 1.49 MU/ml; in assay [3], 1.48 MU/ml; in assay [4], 1.28 MU/ml; in assay [5] it was 1.35 MU/ml. Also, the specific activity (U/mg), inhibition of trypsin with BAPA as substrate in the assay with trypsin was 1.5 U/mg. Further, in assay [6], the fold higher binding capacity than seed-ETI-Sepharose was 1.5 fold.
“recombinant, non-modified ETI (recETI) (from UniProt P09943)” yielded a specific activity (U/mg), inhibition of trypsin with BAPA as substrate in the assay with trypsin of 1.07 U/mg.
